In PMC4530445, “PDZ interaction of Vangl2 links PSD-95 and Prickle2 but plays only a limited role in the synaptic localisation of Vangl2” (Scientific Reports, 2015):

Molecular target: T1, GFP-PSD-95 (green fluorescent protein-tagged postsynaptic density-95) (UniProt P31016 1-724)
T1 construct: postsynaptic density-95 (PSD-95); Printed as GFP-PSD-95 in the results and PSD-95-GFP in the methods; also called PSD-95-GFP; source: HEK293T, transfected, in lysate
Test: co-IP; HEK293T cells cotransfected with HA-Prickle2 and GFP-PSD-95, with or without FLAG-Vangl2 WT or ΔETSV; IP of the lysate with α-GFP Abs, western blot; 1% NP-40, 150 mM NaCl, 50 mM Tris-Cl pH 7.5, 2 mM EDTA, 10% glycerol, on ice or at 4 °C; precipitated Prickle2 (IP/Input) divided by the relative amount of precipitated PSD-95-GFP
Conditions: partners not purified

T1 sequence (P31016 whole entry): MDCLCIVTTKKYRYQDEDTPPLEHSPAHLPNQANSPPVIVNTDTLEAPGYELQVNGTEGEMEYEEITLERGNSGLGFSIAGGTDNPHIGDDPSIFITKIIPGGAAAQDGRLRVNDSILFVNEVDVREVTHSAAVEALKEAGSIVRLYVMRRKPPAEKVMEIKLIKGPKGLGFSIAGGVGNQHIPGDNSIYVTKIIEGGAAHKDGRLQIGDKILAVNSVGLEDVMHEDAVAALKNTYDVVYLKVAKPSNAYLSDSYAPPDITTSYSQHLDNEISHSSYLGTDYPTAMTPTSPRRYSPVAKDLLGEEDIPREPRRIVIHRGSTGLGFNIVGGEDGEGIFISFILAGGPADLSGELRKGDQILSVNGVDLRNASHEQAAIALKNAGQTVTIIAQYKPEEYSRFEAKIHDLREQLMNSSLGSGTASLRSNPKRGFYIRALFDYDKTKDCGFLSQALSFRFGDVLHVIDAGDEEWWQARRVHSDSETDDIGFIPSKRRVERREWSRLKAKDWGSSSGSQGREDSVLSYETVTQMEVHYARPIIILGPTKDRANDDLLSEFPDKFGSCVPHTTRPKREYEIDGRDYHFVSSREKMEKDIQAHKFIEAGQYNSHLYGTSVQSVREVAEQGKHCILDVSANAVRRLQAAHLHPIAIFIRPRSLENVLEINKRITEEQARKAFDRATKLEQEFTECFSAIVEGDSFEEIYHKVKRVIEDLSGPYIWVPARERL

B1: hemagglutinin (HA)-Prickle2 (natural protein, UniProt Q80Y24 1-845, looked up)
chain: MVTVMPLEMEKTISKLMFDFQRSSTSDDDSGCALEEYAWVPPGLKPEQVHQYYSCLPEEKVPYVNSAGEKLRIKQLLHQLPPHDNEVRYCNSLDEEEKRELKLFSNQRKRENLGRGNVRPFPVTMTGAICEQCGGQIKGGDIAVFASRAGHGICWHPPCFVCTVCNELLVDLIYFYQDGKIYCGRHHAECLKPRCAACDEIIFADECTEAEGRHWHMRHFCCFECETVLGGQRYIMKEGRPYCCHCFESLYAEYCDTCAQHIGIDQGQMTYDGQHWHATETCFCCAHCKKSLLGRPFLPKQGQIFCSRACSAGEDPNGSDSSDSAFQNARAKESRRSAKIGKNKGKTEEAMLNQHSQLQVSSNRLSADVDPLSVQMDLLSLSSQTPSLNRDPIWRSREEPFHYGNKMEQNQSQSPLQLLSQCNIRTSYSPGGQGAGAQPDMWAKHFSNPKRSSSMALKGHGGSFIQECREDYYPGRLMSQESYSDMSSQSFNETRGSIPVPKYEEEEEEEEGGISTQQCRPRRPLSSLKYTEDMTPTEQTPRGSMESLALSNATGLSAEGGAKRQEHLSRFSMPDLSKDSGMNVSEKLSNMGTLNSSMQFRSAESVRSLLSAQQYQEMEGNLHQLSNPLGYRDLQSHGRMHQSFDFDGGIASSKLPGQEGVHIQPMSERTRRRTTSRDDNRRFRPHRSRRSRRSRSDNALHLASEREVIARLKERPPLRAREDYDQFMRQRSFQESLGQGSRRDLYSQCPRTVSDLALQNAFGERWGPYFTEYDWCSTCSSSSESDNEGYFLGEPIPQPARLRYVTSDELLHKYSSYGVPKSSTLGGRGQLHSRKRQKSKNCIIS
notes: Prickle2; source: HEK293T, transfected, in lysate
  fold increase of the precipitated amount of Prickle2 with FLAG-Vangl2 co-expressed, against without Vangl2: 63.6 fold
